Reference: the nanobody polyreactivity screen of Harvey et al. (2022)

Test: yeast display, Sf9 membrane polyspecificity reagent, FACS + sequencing; frameworks hold sequencing errors
How it was run: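 Using colony PCR, genes from sorted yeast display clones were amplified, then sequenced on MiSeq at 2 × 250 and filtered by CDR length. The clones had been stained with 10% biotinylated, detergent-solubilized Sf9 membrane reagent for 1 hour at 4 °C and sorted by FACS into low and high (top ~1%) gates on anti-HA and streptavidin fluorescence. Polyreactivity labels come from the gate of origin.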
With “QVQLVESGGGLVQAGGSLRLSCAASGSIFRGYAMGWYRQEPEKERELVAAMSRRGGSTYYADSVKGRFSISRDNAKNTVYLQMNSLKPEDTAVYYCAKDGTGAGNYDYWGQGTQVTVSS” the “polyreactivity (PSR sort gate)” value was “low polyreactivity”. In the case of “QVQLVESGGGLVQAGGSLRLSCAASGSIFWPYAKGWYRQAPGKERELVAAISSSGTSTYYADSVKGRFTISRDNAKNTVYLQMNSLKPEDTAVYYCAKELFTYPYEYWGQGTQVTVSS”, the “polyreactivity (PSR sort gate)” value was “low polyreactivity”. In the case of “QVQLVDSGGGLVQAGGSLRLSCAASGFIFIRNARGWYRQAPGKESQLVAAIRYRGGNTYYADSVKGRFTISRDNAKNTVYLQMNSLKPEDTAVYYCNAAGSYYTRSDSGYWGQGTQVTVSS”, the “polyreactivity (PSR sort gate)” value was “high polyreactivity”. With “QVQLVESGGGLVQAGGSLRLRCAASGSIFRVYAMGWYRQAPGKERELVATITWNGGSTYYADSVKGRFTISRDNAKNTVYLQMNSLKPEDTAVFYCAKPSSWRRVLPIDYWGQGTQVTVSS” the “polyreactivity (PSR sort gate)” value was “low polyreactivity”. In the case of “QVQLVESGGGLVQAGGSLRLSCAASGLTFVSYVMGWYRQAPGKERELVAAISSSGGRTYYADSVKGRFTISRDNAKNTVYLQMNSLKPEDTAVYYCAVYGYHEGGYWGQGTQVTVSS”, the “polyreactivity (PSR sort gate)” value was “high polyreactivity”. With “QVQLVESGGGLVQAGGSLRLSCAASGIPFKGYAMGWYRQAPGQERELVAASNSRGGTYADSVKGRFTISRDNAKNTVYLQRNSLKPEDTAVYYCGVSAVRPLPLDSGYDYWGQGSQVTVSS” the “polyreactivity (PSR sort gate)” value was “low polyreactivity”. With “QVQLVESGGGLVQAGGSLRLTCAASGITFVYNAMGWYRQAPGKERELVAAISWRGGSTYYADYVKGRFTISRDNAKNTVYLQMNSLKPEDTAVYYCNNLPTYPDYGYDSWGQGTQVTVSS” the “polyreactivity (PSR sort gate)” value was “high polyreactivity”. With “QVQIVESGGGLVQAGGSLRISCAATGSTFDSFAMGWYRQAPGKERELVDAITRRGTRTYYADSVKGRFTISRDNAKNTVYLQRNSLKPEDTAVYYCNAVTQCSKTPGYGFNYWGQGTQVTVSS” the “polyreactivity (PSR sort gate)” value was “high polyreactivity”. In the case of “QFQLVESGGGLVQARGRLRLSCAASGSIFSYNAMGWYRQAPGKERELVARISSSGSTNYADSVKGRFTISRDNAKNTVYIQMNSLKPEDTAVYYCNKDPYWPSWTRRRREYYYWGQGTQVTVSS”, the “polyreactivity (PSR sort gate)” value was “high polyreactivity”. For “QVQLVESGGGLVQAGGSRLLSCAASGGTFSFYAMGWYRQAPAKEREFVAAITASDGSTYYADSLTGRFTISRDNAKNTVYLQMNSLKPEDTAVYYCAADAYGYKFNSWVQGTQVTVSS”, the “polyreactivity (PSR sort gate)” value was “low polyreactivity”. With “QVQLVESGGGLVQAGGSLRLSCAASGRIFGSNTLGWYRQAPGKEREMVAAISRRGGSTYYADSVKGRFTISRDNAKNTVYLQINSLKPEDTAVYYCAAVGTGSSLRYDYWGQGTQVTVSS” the “polyreactivity (PSR sort gate)” value was “high polyreactivity”. In the case of “QVQLVESGGGLVQAGGSLRLSCAASGSTGGYAMGWYRQAPGKERELVARISYSGGSTYYADSVKGRFTISRDNAKNTVYLQMNSLKPEDTAVYYCAARILYRYYYWGQGTQVTVSS”, the “polyreactivity (PSR sort gate)” value was “high polyreactivity”. With “QVQLVESGGGLVQAGGSLRLSCAASGFTLDWYVMGWYRQAPRKERELFAAISSSGGRTYYADSVKGRFTISRDNAKNSVYLQMNSLKPEDTAVYYCAAGTYYRVGRGRRVSFVYWGQGTQVTVSS” the “polyreactivity (PSR sort gate)” value was “high polyreactivity”. With “QVQLVESGGGLVQAGGSLRLSCAASGRTFAYYAMGWYRQAPGKERELVAAITTSGTRTYYADSVKGRFTISRDTAKNTVYLQMNSLKPEDTAVYSCAARYRYQYEFDYWGQGTQVTVSS” the “polyreactivity (PSR sort gate)” value was “high polyreactivity”. For “QVQLVESGGGLVQAGGSLRLSCAASGSTFDYYAMGWDRQAPGKERELVAAIRWSSGRTYYADSVKGRFTISRDNAKNTVYLQMHSLKPEDTAVYYCASAGHRGQGGPRYNYWGQGTQVTVSS”, the “polyreactivity (PSR sort gate)” value was “high polyreactivity”. With “QVQLVESGGGLVQAGGSLRLSCAASGSTLAIYAKGWYRQAPGKERELVAAISGGGSTYADSVKGRFTISRDNAKNTVYLQMNSLKPEDTAVYYCNADGWGDRFWSNFRFDYWGQGTQVTVSS” the “polyreactivity (PSR sort gate)” value was “low polyreactivity”. In the case of “QVQLVESGGGLVQAGGSLRLSCAASGSIFKWYAMGWYRQAPGKERELVAAITRGGSTNYADSVKGRFTISRDNAKNTVYLQMNSLKAEDTAVYYCNAVYTYRSGFGYWGQGTQVTVSS”, the “polyreactivity (PSR sort gate)” value was “low polyreactivity”. For “QVQLVESGGGLVQAGGSLRLSCAATGSIFPANVMGWYRQAPGKERELVASINSGDDTNYADSVKGRFTISRDNAKNTVYLQMNSLKPEDTAVYYCATGDWYPYGDYIYDYWGQGTQVTVSS”, the “polyreactivity (PSR sort gate)” value was “low polyreactivity”. With “QVQLVDSGGGLVQAGGSLRLSCAASGNTFSGNTMGWYRQAPGKERELVAAIRFTGGSTTYADSVKGRFTISRDNAKNTVYLQMNSLKPEDTAVYYCNTDWVSFRSIYHEYDYWGQGTQVTVSS” the “polyreactivity (PSR sort gate)” value was “low polyreactivity”. With “QVQLVESGGGLLQAGGSLRLSCASSGRIFRWNAMGWYRQAPGKERELVAAISARGGSTYYADSVKGRFTISRDNAKNTVYLQMNSLKPEDTAVYYCAKVSSRGFDYWGQGTQVTVSS” the “polyreactivity (PSR sort gate)” value was “high polyreactivity”. With “QVQLVESGGGLVQAGGSLRLSCAASGFIFYRYAMGWYRQAPGKERELVAAISKSGSSTYYADSVKGRFTISRDNAKNTVYLQMNSLKPEDTAVYYCARDRQSRSLLEYDYWGQGTQVTVSS” the “polyreactivity (PSR sort gate)” value was “low polyreactivity”. For “QVQLVESGGGLVQAGGSLRLSCAASGNTFVQNTMGWYRQAPGKERELVAAISSRGGSTYYADSVKGRFTISRDNAKNTVYLQMNSLKPEDTAVYYCAARSKVRRSYDYRGQGTQVTVSS”, the “polyreactivity (PSR sort gate)” value was “high polyreactivity”. In the case of “QVQLVESGGGLVQAGGSLRLRCAASGLIFGTYAMGWYRQAPGKERELVATISQIGGSTYYADSVKGRFTISRDNAKNTVYLEMNSLKPEETAVYYCAVDGGEFSSYGYWGQGTQVTVSS”, the “polyreactivity (PSR sort gate)” value was “low polyreactivity”. In the case of “QVQLVESGGGLVQAGGSLRLSCAASGLIFPVYDMGWYRQAPGKERELVAAITRSGDSTYYADSVKGRFTISRDNAKNTVYLQMNSLKPEDTAVYYCAAQPGTASYAGDGDSWGQGTQVTVSS”, the “polyreactivity (PSR sort gate)” value was “low polyreactivity”. With “QVQLVESGGGLVQAGGSLRLSCAASGFTFGTYAMGCYRPAPGKERELVAAISKRGGSTYYADSVKGRFTISRDNAKNTVYLQMNSLKPEDTAVYYCAATRPYSHRDYFYWGQGTQVSVSS” the “polyreactivity (PSR sort gate)” value was “high polyreactivity”. For “QVQLVESGGGLVQAGGSLRLSCAASGRIFFNSAMGWYRQAPGKERELVAAIRGGGSTYADSVKGRFTISRDNAKNTVYLQMNSLKPEDTAVYYCAARYSGSPYHTRRYYYWGQGTQVTVSS”, the “polyreactivity (PSR sort gate)” value was “high polyreactivity”. With “QVQLVESGGGLVQAGGSLRLSCAASGSTFLKYAMVWYRQAPGKERELVAAITSDGTTYADSVKGRFTISRDNAKNTVYLQMNSLKPEDTAVYYCAKDYRHPTFDYWGQGTQVTVSS” the “polyreactivity (PSR sort gate)” value was “low polyreactivity”. With “QVQLVESGGGLVQAGGSLRLSCAASGSTFAQNGLGWYRQAPGKERELVAAITSSGSTNYADSVKGRFTISRDNAKNTVYLQMNSLKPEDTAVYYCAKDVLAPYTRHDYWGQGTQVTVSS” the “polyreactivity (PSR sort gate)” value was “low polyreactivity”. For “QVQLVESGGGLVQAGGSLRLSCAASGSIFRKNAMGWSRPAPGKERELVAVSTSSGASTYYADSVKGRFTISRDNAKNTVYVQMNSLKPEETAVYYCNAPSFYTKKMYSWGQGTQVTVSS”, the “polyreactivity (PSR sort gate)” value was “high polyreactivity”. For “QVQLVESGGGLVQAGGSLRLSCAASGFTFLSYTMGWYRQEPGKERELVASITASGTRTYYADSVKGRFTISRDNAKNTVYLQMNSLKPDDTAVYYCAARRSGSGSHDYGYWGQGTQVTVSS”, the “polyreactivity (PSR sort gate)” value was “low polyreactivity”. In the case of “QVQLVESGGGLVQAGGSLRLSCAASGITYCANTMGWYRQAPGKERELVADITVTGDGTYYADSVKGRFTISRDNAKNTVYLQMNSLKPEDTAVYYCAADFWLVSFQWDFEYDYWGQGTQVTVSS”, the “polyreactivity (PSR sort gate)” value was “low polyreactivity”. In the case of “QVQLVESGGGLVQAGGSLRLSCAASGITFAGYAMGWYRQAPGKERELVAAITRGGGITYYADSVKGRFTISRDNAKNTVYLQMNSLKPEDTPVDYCNAVVTSAAGYFPLLYDYWGQGTQVTVSS”, the “polyreactivity (PSR sort gate)” value was “high polyreactivity”. For “QVQLVESGGGLVQAGGSLRLSCAASGIIFIYYTMGWYRQSPGKERELVAVITTSGDGTYYADSVKGRFTISRDNAKNTVYLQMNSLKPEDTAVYYCAASYSTWVSTRNDYWGQGTQVTVSS”, the “polyreactivity (PSR sort gate)” value was “low polyreactivity”. In the case of “QVQLVESGGGLVQAGGSLRLSCAASGSIFATNAMGWYRQAPGKERELVASISSGGGSTYYADSVKGRFTISRDNAKNTVYLQMNSLKPEDTAVYYCARRIGHGSRPYWLETWRYPYDYWGQGTQVTVSS”, the “polyreactivity (PSR sort gate)” value was “low polyreactivity”. With “QVQLVESGGGLVQAGGSLRLSCAASGSTFVDYAMGWYRQAPGKERELVAAMSSSGGSTYYADSVKGRFTISRDNAKNTVYLQMNSLKPEDTAVYYCAARYDRSSKRNYWGQGTQVTVSS” the “polyreactivity (PSR sort gate)” value was “low polyreactivity”. In the case of “QVQLVESGGGLVQAGGSLRLSCAASGSIFRRYAMGWYRQAPGKERELVAAISRSGSSTYADSVKGRFTISRDNEKNTVYLQMNSLKPEDTEVYYCNRVRLNTEGFDYWGQGTQVTVSS”, the “polyreactivity (PSR sort gate)” value was “low polyreactivity”. In the case of “QVQLVESGGGLVQAGGSLSLSCAASGSISDVYAMGGYRQAPGKERELVAAITSGASTYYADSVKGRFTISRDNAKNTVYLQMNSLKPEDTAVYYCAAGYSDWYYAAYNSWGQGTQVTVST”, the “polyreactivity (PSR sort gate)” value was “low polyreactivity”. With “QVQLEESGGGLVQAGGSLRLSCAASGLIFSAYAMGWYRQAPGKERELVAAIRTGGSTYYADSVKGRFTFSRDNAKNTVYLQMNSLKPVDTAVYYCAASQKGYFYYNVYYWGQGTQVTVSS” the “polyreactivity (PSR sort gate)” value was “high polyreactivity”. In the case of “QVHLVESGGGLVQAGGSLRLSCAASGSIFDEYAMGWYRQAPGKERELVAAITSGGSTNYADSVKGRFTISRDNAKNTVYLQMNSLKPEDTAVYYCNVARQAKGMGYWGQGTEVTVSS”, the “polyreactivity (PSR sort gate)” value was “low polyreactivity”. In the case of “QFQLGESVGGLVQAGGSLRLSCAGYGSIFLGKAMGWYREATGKEMEFVDAIRISGGSTYYADSVKGRFTISRDNAQYTVYIQMNILKPEDTAVYYCAKFGPRASLYRTGRYYWGQGTQVTVSS”, the “polyreactivity (PSR sort gate)” value was “high polyreactivity”. For “QVQLVESGGGLVQAGGSLRLSCAASGRIIRYYAMGWYRQAPGKERELVAAISKSGGSTYYADSVKGRFTISRDNAKNTVYLQMNSMKREDTAVFFCAAGTSRYVYHSYGKYEYWGQGTQVTVSS”, the “polyreactivity (PSR sort gate)” value was “high polyreactivity”. With “QVQLVESGGGLVQAGGSLRLSCAAYGSIFIYAMGGYRQAPGKVRELVAAISSSGGSTYYADSVKGRFTISRDNAKNTVYLQMNSLKPEDTAVYYCAARYTYSGDKGYYWGQGTQVTVSS” the “polyreactivity (PSR sort gate)” value was “high polyreactivity”. For “QVQLVESGGGLVQAGGSLRLSCAASGRIFYWNTMGWYRQAPGKEREFVAAILSRGDTTYYADSVKGRFTISRDNAKNTVYLQMNSLKPEDTAVYYCAARPVRYHYVPSMYYWGQGTQVTVSS”, the “polyreactivity (PSR sort gate)” value was “high polyreactivity”.
